Source: patent US20180236141A1

Molecular target: integrin α2β1 on platelets (UniProt P17301)
Assay: cell-based or functional assay

With Collagen type I (ligand) the platelet aggregation was greater than 90%.
